Consider 14 molecules from patent publication EP4803549A1 (Leads Biolabs Inc., dated 2026).

The chains are these.
T1: human BCMA protein expressed on the cell surface (human, UniProt Q02223 1-184)
T1 construct: whole, on cells; also called CHO-K1-huBCMA; CHOK1-huBCMA
T1 sequence (looked up): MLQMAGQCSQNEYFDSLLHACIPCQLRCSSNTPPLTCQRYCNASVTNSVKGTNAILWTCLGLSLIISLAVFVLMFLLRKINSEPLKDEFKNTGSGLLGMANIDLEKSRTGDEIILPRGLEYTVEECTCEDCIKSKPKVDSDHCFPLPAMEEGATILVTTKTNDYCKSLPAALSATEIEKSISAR

T2: human BCMA-His protein (ACRO, Cat#: BCA-H522y) (human, UniProt Q02223 1-54)
T2 construct: Bought protein; also called Human BCMA protein; huBCMA-his
T2 sequence: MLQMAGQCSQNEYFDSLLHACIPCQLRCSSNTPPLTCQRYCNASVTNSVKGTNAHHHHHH

B1: humanized anti-GPRC5D VHH-Fc antibody 8H5 (antibody, human IgG1, V domains shown)
VH: EVQLLESGGGLVQPGGSLRLSCAASGIFLSASVMSWYRQAPGKQRELVASMLNSNTNYADSVKGRFTISRDNSKNTMYLQMNSLRAEDTAVYYCNAERSGVYWGQGTQVTVSS
notes: also called hu8H5; humanized anti-GPRC5D VHH 8H5-Fc
B2: huHA68-4-CD3ScFv (bispecific antibody)
heavy 1: EVQLVETGGGLIQPGGSLRLSCAASGFTFSPSAMSWARQAPGKGLEWVSGIYGDGKAEYADSVKGRFTISRDNSKNTVYLQMNSLRAEDTAVYSCAVGIRPTDAPWAASLRGQGTLVTVSSEPKSSDKTHTCPPCPAPEAAGGPSVFLFPPKPKDTLMISRTPEVTCVVVAVSHEDPEVKFNWYVDGVEVHNAKTKPREEQYNSTYRVVSVLTVLHQDWLNGKEYKCKVSNKALAAPIEKTISKAKGQPREPQVCTLPPSRDELTKNQVSLSCAVKGFYPSDIAVEWESNGQPENNYKTTPPVLDSDGSFFLVSKLTVDKSRWQQGNVFSCSVMHEALHNHYTQKSLSLSPGK
heavy 2: not shown
notes: HC1 huHA68-4-hole; HC2 CD3ScFv-knob; also called anti-CD3/BCMA bispecific antibody; diabody
B3: huBH56-3-CD3ScFv (bispecific antibody)
heavy 1: EVQVVESGGGLIQPGGSLRLSCAASGFTFAPSAMSWARQPPGKEVEWVSGIYGDGRTTYADSVKGRFTISRDNSKNTVYLQMNSLRAEDTAVYYCVVGIRLLSESWAQALRGQGTQVTVSSEPKSSDKTHTCPPCPAPEAAGGPSVFLFPPKPKDTLMISRTPEVTCVVVAVSHEDPEVKFNWYVDGVEVHNAKTKPREEQYNSTYRVVSVLTVLHQDWLNGKEYKCKVSNKALAAPIEKTISKAKGQPREPQVCTLPPSRDELTKNQVSLSCAVKGFYPSDIAVEWESNGQPENNYKTTPPVLDSDGSFFLVSKLTVDKSRWQQGNVFSCSVMHEALHNHYTQKSLSLSPGK
heavy 2: not shown
notes: HC1 huBH56-3-hole (VHH, EPKSS, Fc hole); HC2 CD3ScFv-knob (CD3 VH, linker, CD3 VL, EPKSS, Fc knob); also called anti-CD3/BCMA bispecific antibody; diabody
B4: 2xhuHA68-4-CD3ScFv (bispecific antibody)
heavy 1: EVQLVETGGGLIQPGGSLRLSCAASGFTFSPSAMSWARQAPGKGLEWVSGIYGDGKAEYADSVKGRFTISRDNSKNTVYLQMNSLRAEDTAVYSCAVGIRPTDAPWAASLRGQGTLVTVSSGGGGSEVQLVETGGGLIQPGGSLRLSCAASGFTFSPSAMSWARQAPGKGLEWVSGIYGDGKAEYADSVKGRFTISRDNSKNTVYLQMNSLRAEDTAVYSCAVGIRPTDAPWAASLRGQGTLVTVSSEPKSSDKTHTCPPCPAPEAAGGPSVFLFPPKPKDTLMISRTPEVTCVVVAVSHEDPEVKFNWYVDGVEVHNAKTKPREEQYNSTYRVVSVLTVLHQDWLNGKEYKCKVSNKALAAPIEKTISKAKGQPREPQVCTLPPSRDELTKNQVSLSCAVKGFYPSDIAVEWESNGQPENNYKTTPPVLDSDGSFFLVSKLTVDKSRWQQGNVFSCSVMHEALHNHYTQKSLSLSPGK
heavy 2: not shown
notes: HC1 carries two huHA68-4 VHHs in tandem (GGGGS linker) on Fc hole; HC2 is CD3ScFv-knob; also called anti-CD3/BCMA bispecific antibody; diabody
B5: 2xhuBH56-3-CD3ScFv (bispecific antibody)
heavy 1: EVQVVESGGGLIQPGGSLRLSCAASGFTFAPSAMSWARQPPGKEVEWVSGIYGDGRTTYADSVKGRFTISRDNSKNTVYLQMNSLRAEDTAVYYCVVGIRLLSESWAQALRGQGTQVTVSSGGGGSEVQVVESGGGLIQPGGSLRLSCAASGFTFAPSAMSWARQPPGKEVEWVSGIYGDGRTTYADSVKGRFTISRDNSKNTVYLQMNSLRAEDTAVYYCVVGIRLLSESWAQALRGQGTQVTVSSEPKSSDKTHTCPPCPAPEAAGGPSVFLFPPKPKDTLMISRTPEVTCVVVAVSHEDPEVKFNWYVDGVEVHNAKTKPREEQYNSTYRVVSVLTVLHQDWLNGKEYKCKVSNKALAAPIEKTISKAKGQPREPQVCTLPPSRDELTKNQVSLSCAVKGFYPSDIAVEWESNGQPENNYKTTPPVLDSDGSFFLVSKLTVDKSRWQQGNVFSCSVMHEALHNHYTQKSLSLSPGK
heavy 2: not shown
notes: HC1 carries two huBH56-3 VHHs in tandem (GGGGS linker) on Fc hole; HC2 is CD3ScFv-knob; also called anti-CD3/BCMA bispecific antibody; diabody
B6: 269B094 (a fully human monoclonal antibody targeting BCMA) (antibody, V domains shown)
VH: DVQLVESGGGLVQPGGSLRLSCAASGRTFSSIVMGWFRQAPGKEREFVGAIMWNDGITYLQDSVKGRFTIFRDNAKNTVYLQMNSLKLEDTAVYYCAASKGRYSEYEYWGQGTQVTVSS
notes: also called control antibody; control sample
B7: huHA68-4-IgG (antibody, V domains shown)
VH: EVQLVETGGGLIQPGGSLRLSCAASGFTFSPSAMSWARQAPGKGLEWVSGIYGDGKAEYADSVKGRFTISRDNSKNTVYLQMNSLRAEDTAVYSCAVGIRPTDAPWAASLRGQGTLVTVSS
notes: Humanized VHH-Fc heavy-chain antibody
B8: huHA68-3-IgG (antibody, V domains shown)
VH: EVQLVETGGGLIQPGGSLRLSCAASGFTFSPSAMSWARQAPGKGLEWVSGIYGDGKAEYADSVKGRFTISRDNSKNTVYLQMNSLRAEDTAVYYCAVGIRPTDAPWAASLRGQGTLVTVSS
notes: as for B7
B9: HA68-IgG (antibody, V domains shown)
VH: QVQLVETGGGLVQPGGSLRLSCAASGFTFSPSAMNWARQAPGKGLEWVAGIYGDGKAEYADSVKGRFTISRDNAKNMVYLQMVNLRPEDTAVYSCAVGIRPTDAPWAASLRGQGTQVTVSS
notes: also called anti-human BCMA chimeric antibody
B10: BH56-IgG (antibody, V domains shown)
VH: EVQVVESGGGLVQAGESLTLSCAASGFTFAPSAMSWARQPPGKEVEWVSGIYGDGRTTYADSVKGRFTISRDNAKKTVTLQMNNLEPEDSGNYICVVGIRLLSESWAQALRGQGTQVTVSS
notes: as for B9
B11: huBH56-3-IgG (antibody, V domains shown)
VH: EVQVVESGGGLIQPGGSLRLSCAASGFTFAPSAMSWARQPPGKEVEWVSGIYGDGRTTYADSVKGRFTISRDNSKNTVYLQMNSLRAEDTAVYYCVVGIRLLSESWAQALRGQGTQVTVSS
notes: Humanized VHH-Fc heavy-chain antibody; Fc with L234A, L235A, D265A, P329A
B12: huBH56-4-IgG (antibody, V domains shown)
VH: EVQLVESGGGLIQPGGSLRLSCAASGFTFAPSAMSWARQPPGKEVEWVSGIYGDGRTYYADSVKGRFTISRDNSKNTVYLQMNSLRAEDTAVYYCVVGIRLLSESWAQALRGQGTQVTVSS
notes: as for B7
B13: huBH56-5-IgG (antibody, V domains shown)
VH: EVQVVESGGGLIQPGGSLRLSCAASGFTFAPSAMSWARQPPGKEVEWVSGIYGDGRTTYADSVKGRFTISRDNSKNTVYLQMNSLRAEDTAVYICVVGIRLLSESWAQALRGQGTQVTVSS
notes: as for B7
B14: huBH56-6-IgG (antibody, V domains shown)
VH: EVQLVESGGGLIQPGGSLRLSCAASGFTFAPSAMSWARQPPGKGLEWVSGIYGDGRTYYADSVKGRFTISRDNSKNTVYLQMNSLRAEDTAVYYCVVGIRLLSESWAQALRGQGTQVTVSS
notes: as for B7

For one assay, the target named is T3, human GPRC5D protein expressed on the cell surface (human, UniProt Q9NZD1 1-345).
T3 construct: NP_061124.1 (NCBI) and Q9NZD1 (UniProt) are printed; also called CHO-K1-huGPRC5D
T3 sequence (Q9NZD1 whole entry): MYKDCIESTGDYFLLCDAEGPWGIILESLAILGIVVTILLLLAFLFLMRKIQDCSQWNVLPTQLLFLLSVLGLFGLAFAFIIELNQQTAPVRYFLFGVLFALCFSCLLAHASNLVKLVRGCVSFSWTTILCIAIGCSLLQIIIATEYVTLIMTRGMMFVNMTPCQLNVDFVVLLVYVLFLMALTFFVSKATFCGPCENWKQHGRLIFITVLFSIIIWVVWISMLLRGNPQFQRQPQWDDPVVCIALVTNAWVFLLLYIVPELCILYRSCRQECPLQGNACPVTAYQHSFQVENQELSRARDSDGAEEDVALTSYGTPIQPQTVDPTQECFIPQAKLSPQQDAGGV
The assay can be described thus: flow cytometry on 293T-huGPRC5D cells. (In general: Flow cytometry measures light scatter and fluorescence of single cells or particles in a stream.)
On to B1, for which the binding result is “binds”.

For a further assay, the target named is T1, human BCMA protein expressed on the …. Put plainly: flow cytometry on CHOK1-huBCMA cells.
As for B2, the binding result was “binds”.

For B3, the binding result is recorded as “binds”.

For the molecule B4, the binding result is given as “binds”.

Consider B5, for which the binding result is “binds”.

Another assay concerns the target T2, human BCMA-His protein (ACRO, Cat#: …). Put plainly: BLI (ForteBio Octet RED96e), antibody on AHC sensor, 100 nM human BCMA-His, 1:1 model. Background: In BLI a coated tip is dipped into the sample, and binding shifts an interference pattern.
With B6, the Kd (commonly the constant that tells how readily two partners part at equilibrium) was found to be 1510 pM; the dissociation rate constant (koff) (usually the rate constant with which the complex falls apart) is 0.00155 s⁻¹; the kon (as a rule, the second-order rate constant of association) was 1e+06 M⁻¹ s⁻¹.

B7 registered a Kd of less than 1 pM, a koff of less than 1e-07 s⁻¹ and a kon of 1e+06 M⁻¹ s⁻¹.

In turn, B8 came in with a Kd of less than 1 pM, a koff of less than 1e-07 s⁻¹ and an on-rate (kon) of 1e+06 M⁻¹ s⁻¹.

Regarding B9, the Kd was less than 1 pM, the off-rate (koff) is less than 1e-07 s⁻¹ and the kon was found to be 1e+06 M⁻¹ s⁻¹.

The molecule B10 returned a Kd of less than 1 pM, a koff of less than 1e-07 s⁻¹ and an on-rate (kon) of 1e+06 M⁻¹ s⁻¹.

For the molecule B11, the Kd is less than 1 pM, the koff is less than 1e-07 s⁻¹ and the kon was determined as 1e+06 M⁻¹ s⁻¹.

For the molecule B12, the Kd is less than 1 pM, the dissociation rate constant (koff) is less than 1e-07 s⁻¹ and the kon is 1e+06 M⁻¹ s⁻¹.

Molecule B13 registered a Kd of less than 1 pM, a koff of less than 1e-07 s⁻¹ and an on-rate (kon) of 1e+06 M⁻¹ s⁻¹.

With B14, the Kd was less than 1 pM, the koff was less than 1e-07 s⁻¹ and the kon came out at 979000 M⁻¹ s⁻¹.
